Measurements reported in the supplement of paper PMC10567573.

B1: INTS3 (parent)
chain: AQLQALRQKEVDFCISLLRERFME

Variants of: B1
Assay: protein stability index of a GFP-peptide fusion (GPS, HEK-293T) (PSI 1-6); higher = more stable
Conditions: c terminus: a fixed tail appended
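Further: lentivirally expressed fusions sorted by FACS into six bins by GFP to DsRed ratio, PSI derived from sequencing read proportions per bin multiplied by bin number.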

Protein stability index: each site, then its substitutions
V11: P 2.7, H 3.66, K 1.7, F 2.1, W 2.14, L 4.26, N 2.25, Y 2.73, C 1.29, E 2.54, A 2.23, Q 1.81, R 1.99, D 2.49, G 1.72, M 3.61, S 1.67, T 1.81
L6: E 1.52, Y 2.57, T 1.86, V 2.98, Q 2.02, H 2.11, I 1.93, R 2.02, N 1.97, F 2.59, A 2.13, M 2.44, C 3.33, G 1.98, P 2.25, D 1.96, S 2.14, K 2.31, W 1.73
R7: F 2.46, P 2.23, H 2.84, S 2.93, G 4.64, Y 3.17, W 2.6, K 2.71, T 3.43, N 2.35, V 1.74, Q 2.73, L 2.24, D 1.65
Q8: T 3.06, R 1.91, G 2.55, P 1.22, D 2.83, E 1.91, Y 4.01, L 1.78, A 2.62, V 3.32, N 2.37, H 3.1, I 3.36, K 1.65, S 3.06
E10: W 1.53, K 2.2, S 3.14, C 1.02, I 2.25, M 2.87, A 2.86, G 2.1, Y 1.49, F 2.15, D 1.04, R 2.09, N 1.32, P 2.72, L 3.79
A5: S 2.33, F 4.25, N 2.61, H 2.44, K 1.92, Y 2.68, V 1.04, R 2.15, L 3.11, M 1.51, T 1.65, I 2.07
K9: M 2.65, N 1.93, Q 3.5, H 3.64, E 2.18, G 2.51, T 2.45, I 3.07, L 2.48, S 2.29, P 2.91, R 2.32, F 2.45, C 2.98, D 1.9, Y 3.51, W 1.45
D12: F 1.05, V 4.29, G 2.1, N 1.59, P 2.05, R 2.19, W 3.08, E 2.45, C 3.46, S 3.29, I 1.91, L 2.47, T 2.66, K 1.98, Y 2.09, H 3.57, Q 2.12
I15: E 2.34, D 2.54, G 2.6, K 2.17, H 2.37, A 1.62
C14: H 1.94, G 1.84, D 2.03, K 1.93, R 2.16, P 2.03, Y 2.16, N 1.52, T 1.68, W 1.96, L 2.93, S 2.02, Q 1.84, I 2.68, E 1.75
F13: S 2.19, T 2.44, Y 5.35, H 1.95, V 2.7, G 2, A 1.09, C 3.42, W 3.65, P 2.3, Q 1.82, R 1.27, M 2.52, I 2.49, D 1.55, K 2.9, E 1.66, N 2.37, L 1.64
